Starred links: 1 amine or outer side, 2 acyl side, 3 side chain; linkers in the order of their positions; H or OH if unused. Non-standard residues stand in square brackets, D forms with d. Groups on a side chain read outwards from the residue. No end group written: not given here. *: point of attachment. C18 diacid = O=C(O)CCCCCCCCCCCCCCCCC(=O)*; γGlu = O=C(O)[C@H](CCC(=O)[*:2])N[*:1]; AEEA = NCCOCCOCC(=O)O; Aib = CC(C)(N)C(=O)O

In patent publication US12679878B2, “CRF2 receptor agonists and their use in therapy” (SANOFI, priority 2020, dated 2026) one finds EC50 [nM], 0% HSA and EC50 [nM], 0.1% HSA data, which are given here for two molecules.

The target in the experiment is human corticotropin-releasing factor 2α (CRF2 α receptor) (human), Q13324. Nature of the experiment: cell-based or functional assay.
Chain of human corticotropin-releasing factor 2α (CRF2 α receptor) (human), Q13324 (Q13324 20-411): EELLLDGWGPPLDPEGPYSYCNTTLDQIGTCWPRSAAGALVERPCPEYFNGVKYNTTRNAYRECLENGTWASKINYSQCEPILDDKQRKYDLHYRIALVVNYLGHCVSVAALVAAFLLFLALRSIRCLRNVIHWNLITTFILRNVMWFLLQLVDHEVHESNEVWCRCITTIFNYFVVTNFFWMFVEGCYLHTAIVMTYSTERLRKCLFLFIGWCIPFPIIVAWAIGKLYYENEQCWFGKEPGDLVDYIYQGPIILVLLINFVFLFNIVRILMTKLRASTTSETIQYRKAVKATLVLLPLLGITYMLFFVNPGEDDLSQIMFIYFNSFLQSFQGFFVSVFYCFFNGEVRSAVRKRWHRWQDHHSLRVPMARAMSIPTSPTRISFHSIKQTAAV

B1: SEQ ID NO: 119 (peptide)
peptide: IVLSLDVPIKLK([AEEA-AEEA-γGlu-C18 diacid])QILLKQERQKK[Aib]RQKAEKNKQILAQV-NH2
modifications: N-terminus assumed
SMILES: CC[C@H](C)[C@H](N)C(=O)N[C@H](C(=O)N[C@@H](CC(C)C)C(=O)N[C@@H](CO)C(=O)N[C@@H](CC(C)C)C(=O)N[C@@H](CC(=O)O)C(=O)N[C@H](C(=O)N1CCC[C@H]1C(=O)N[C@H](C(=O)N[C@@H](CCCCN)C(=O)N[C@@H](CC(C)C)C(=O)N[C@@H](CCCCNC(=O)COCCOCCNC(=O)COCCOCCNC(=O)CC[C@H](NC(=O)CCCCCCCCCCCCCCCCC(=O)O)C(=O)O)C(=O)N[C@@H](CCC(N)=O)C(=O)N[C@H](C(=O)N[C@@H](CC(C)C)C(=O)N[C@@H](CC(C)C)C(=O)N[C@@H](CCCCN)C(=O)N[C@@H](CCC(N)=O)C(=O)N[C@@H](CCC(=O)O)C(=O)N[C@@H](CCCNC(=N)N)C(=O)N[C@@H](CCC(N)=O)C(=O)N[C@@H](CCCCN)C(=O)N[C@@H](CCCCN)C(=O)NC(C)(C)C(=O)N[C@@H](CCCNC(=N)N)C(=O)N[C@@H](CCC(N)=O)C(=O)N[C@@H](CCCCN)C(=O)N[C@@H](C)C(=O)N[C@@H](CCC(=O)O)C(=O)N[C@@H](CCCCN)C(=O)N[C@@H](CC(N)=O)C(=O)N[C@@H](CCCCN)C(=O)N[C@@H](CCC(N)=O)C(=O)N[C@H](C(=O)N[C@@H](CC(C)C)C(=O)N[C@@H](C)C(=O)N[C@@H](CCC(N)=O)C(=O)N[C@H](C(N)=O)C(C)C)[C@@H](C)CC)[C@@H](C)CC)[C@@H](C)CC)C(C)C)C(C)C
B1 registered an EC50 [nM], 0% HSA of 0.13 nM and an EC50 [nM], 0.1% HSA of 4.97 nM.

B2: SEQ ID NO: 120 (peptide)
peptide: IVLSLDVPIKLK([AEEA-AEEA-γGlu-C18 diacid])QILLKQERQKKQREQAEKNKQILEQV-NH2
modifications: N-terminus assumed
SMILES: CC[C@H](C)[C@H](N)C(=O)N[C@H](C(=O)N[C@@H](CC(C)C)C(=O)N[C@@H](CO)C(=O)N[C@@H](CC(C)C)C(=O)N[C@@H](CC(=O)O)C(=O)N[C@H](C(=O)N1CCC[C@H]1C(=O)N[C@H](C(=O)N[C@@H](CCCCN)C(=O)N[C@@H](CC(C)C)C(=O)N[C@@H](CCCCNC(=O)COCCOCCNC(=O)COCCOCCNC(=O)CC[C@H](NC(=O)CCCCCCCCCCCCCCCCC(=O)O)C(=O)O)C(=O)N[C@@H](CCC(N)=O)C(=O)N[C@H](C(=O)N[C@@H](CC(C)C)C(=O)N[C@@H](CC(C)C)C(=O)N[C@@H](CCCCN)C(=O)N[C@@H](CCC(N)=O)C(=O)N[C@@H](CCC(=O)O)C(=O)N[C@@H](CCCNC(=N)N)C(=O)N[C@@H](CCC(N)=O)C(=O)N[C@@H](CCCCN)C(=O)N[C@@H](CCCCN)C(=O)N[C@@H](CCC(N)=O)C(=O)N[C@@H](CCCNC(=N)N)C(=O)N[C@@H](CCC(=O)O)C(=O)N[C@@H](CCC(N)=O)C(=O)N[C@@H](C)C(=O)N[C@@H](CCC(=O)O)C(=O)N[C@@H](CCCCN)C(=O)N[C@@H](CC(N)=O)C(=O)N[C@@H](CCCCN)C(=O)N[C@@H](CCC(N)=O)C(=O)N[C@H](C(=O)N[C@@H](CC(C)C)C(=O)N[C@@H](CCC(=O)O)C(=O)N[C@@H](CCC(N)=O)C(=O)N[C@H](C(N)=O)C(C)C)[C@@H](C)CC)[C@@H](C)CC)[C@@H](C)CC)C(C)C)C(C)C
Take B2: the EC50 [nM], 0% HSA came out at 1.27 nM and the EC50 [nM], 0.1% HSA came out at 61.1 nM.
